Assay results: article PMC7153833

What was measured:
[1] = biological target: hyper-galactosylated (G2 F) variant of the mAb; experiment: native MS
[2] = biological target: α-2,6-sialic acid variant (ST6) of the mAb; experiment: native MS

fold change of binding affinity against G0 F [1]: 1.5 fold
fold change of binding affinity against ST3 [2]: 1.72 fold
Substance: recombinant Human Fc gamma RIIIa/CD16a (V176) protein (from UniProt P08637 17-208) (receptor)
